According to patent EP0830146B1:

Columns and labels:
[1] = molecular target: human CD3 on Jurkat cells (human) (UniProt P07766); experiment: competition with 125I-UCHT1 tracer on Jurkat cells; competitor at 1 nM
[2] = molecular target: human CD3 on Jurkat cells (human) (UniProt P07766); experiment: competition with 125I-UCHT1 tracer on Jurkat cells; competitor at 100 nM
[3] = molecular target: human CD3 on Jurkat cells (human) (UniProt P07766); experiment: cell-based or functional assay

UCHT1 (antibody)
% of 125I-UCHT1 bound [1]: 80%
% of 125I-UCHT1 bound [2]: 0%

sFv-DT390 (from UniProt P00588 1-390)
difference in IC50 against UCHT1-CRM9, protein synthesis inhibition [3]: 16 fold
protein synthesis (% of controls), no serum, 1 x 10^-10 M on Jurkat cells (% of controls) [3]: 18

scUCHT1 (from UniProt P01871 106-453)
% of 125I-UCHT1 bound [1]: 80%
% of 125I-UCHT1 bound [2]: 0%
